In article PMC7528653 (Nucleic Acids Research, 2020):

T1: MSL1 (untagged, subunit of the DCCcore) (Drosophila melanogaster, UniProt P50535 1-1039)
T1 sequence: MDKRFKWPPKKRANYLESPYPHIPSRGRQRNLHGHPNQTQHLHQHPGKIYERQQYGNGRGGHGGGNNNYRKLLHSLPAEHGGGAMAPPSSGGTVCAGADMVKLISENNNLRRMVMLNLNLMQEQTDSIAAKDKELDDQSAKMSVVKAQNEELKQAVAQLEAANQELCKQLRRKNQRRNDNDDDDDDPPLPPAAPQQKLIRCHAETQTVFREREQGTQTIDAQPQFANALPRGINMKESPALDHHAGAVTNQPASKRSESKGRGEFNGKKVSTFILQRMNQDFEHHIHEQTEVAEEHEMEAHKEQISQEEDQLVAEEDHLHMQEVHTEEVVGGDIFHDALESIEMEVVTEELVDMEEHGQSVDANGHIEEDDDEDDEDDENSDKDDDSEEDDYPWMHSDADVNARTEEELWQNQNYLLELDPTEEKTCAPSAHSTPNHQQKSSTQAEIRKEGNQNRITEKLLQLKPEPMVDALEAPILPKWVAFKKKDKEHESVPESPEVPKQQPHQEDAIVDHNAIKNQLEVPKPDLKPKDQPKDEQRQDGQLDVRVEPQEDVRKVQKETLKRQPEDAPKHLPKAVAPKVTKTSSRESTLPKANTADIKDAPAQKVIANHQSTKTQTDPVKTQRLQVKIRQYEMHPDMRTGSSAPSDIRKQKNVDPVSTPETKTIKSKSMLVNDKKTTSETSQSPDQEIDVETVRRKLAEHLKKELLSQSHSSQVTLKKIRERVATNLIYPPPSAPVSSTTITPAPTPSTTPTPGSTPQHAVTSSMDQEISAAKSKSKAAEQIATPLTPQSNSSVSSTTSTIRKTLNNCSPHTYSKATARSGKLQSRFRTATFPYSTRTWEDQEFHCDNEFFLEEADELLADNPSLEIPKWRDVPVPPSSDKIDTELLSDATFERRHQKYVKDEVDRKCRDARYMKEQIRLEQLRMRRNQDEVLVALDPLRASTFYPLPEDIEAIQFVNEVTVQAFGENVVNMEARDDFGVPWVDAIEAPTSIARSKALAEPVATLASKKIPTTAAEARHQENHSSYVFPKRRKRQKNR


Assays:
[1] = target: T1, MSL1 (untagged, subunit of the DCCcore); test: co-IP
[2] = target: MLE-FLAG (maleless DExH helicase, wild-type) (Drosophila melanogaster, UniProt P24785 1-1293); test: co-IP

binding result [1]	binding result [2]	Binder
binds	–	MSL3 with an N-terminal hexahistidine tag (natural protein) MTELRDETPLFHKGEIVLCYEPDKSKARVLYTSKVLNVFERRNEHGLRFYEYKIHFQGWRPSYDRCVRATVLLKDTEENRQLQRELAEAAKLQIRGDYSYKGTPDKPSAKKKRGGKAAHVEEPIVVPMDTGHLEAEHEMAPTPRAAGNRTRDNSGGKRKEKPPSGDGRLKGNRGRQTETFYNNAINDVSVYNHVPQEDRIMMRVSERLRELIEYDRNMIKVLGKQHALPARVPIVTIMENFVKQQAVELAISIKQDSSRARNTQSRNARMEREYDRVMSTVCMLKEVVDGLRIYFEFHVDDHLLYTEEKEYVHNYLTDDNMRNCSLILNKSYEYINPSGDTELIGLDGTPVVEGSGDTNGQIGVINIGGPEYEKQLQKCLLYIVTASGKNTAQAYERTSPYTAAYKLPVEMRGFLNETFKWRLLSAESPPEKSMVFGAPHLVRLMIKMPMFLNASPISNKKLEDLLPHLDAFINYLENHREWFDRENFVNSTALPQEDLQRELLDSLDGIAA
–	binds	DCC DNA-binding module (MSL2-FLAG and MSL1 Δ865-1039) (complex) chain 1: MAQTAYLKVTRIAMRSASNLSKRRVEELNSGLGELRQLLSCVVCCQLLVDPYSPKGKRCQHNVCRLCLRGKKHLFPSCTQCEGCSDFKTYEENRMMAAQLLCYKTLCVHLLHSALFGELAGMRPQVARELVPRIKLPPKTTQEFIREGSNISDTFDIFLPQPDLPFLKDMPTSLPAETPPTSAVTTPELPYDHHLNISDIEAEAAATAEQGHFSPLPLLPTGSRMGMLSHAGQIVIATESSESGFMDQAWTDQVDLSGTVSVSKYTNSGNNFAVSYVMPTSATTKFDPQELQIGQVVQMADSTQLAVLAAVEETVETSTQLTVLSTTVEETVETSTQLEVLTSAEEPNEISDQLANLQVEESDEALVEETVEEAEGTSIPSEVVAEHMEEDQHLDVHTSQSPTQTEMEEAVEEHVATKTQLGHVQTELQDAESLQKDFEDAKAAAEEAKEKEKDLHAISAELQKEDSDEPTLKRKRTRTLKASQAAKIEPVPSEVKTKVQSGKGALRRIRGKDKEEKVKPPKPKCRCGISGSSNTLTTCRNSRCPCYKSYNSCAGCHCVCCKNPHKEDYVESDEDDDLEDFEMPKDVPEPMTQSEEPVVAEPRQEENSMAPPDSSAPISLVPLNNLQQSQHPLVLVQNEKGEYQGFNIFQGSKPLDPVTVGFTIRVQLQHTDGFGSLPQYAYIMPTIDPPNPPAPSLSPPPPPAPDREVIEPPAKKFRTSRTRRGRANFSALDTVDELVSGGSRSNSAAGDRSSATDNAHSLFEEIMSGSDDL chain 2: MDKRFKWPPKKRANYLESPYPHIPSRGRQRNLHGHPNQTQHLHQHPGKIYERQQYGNGRGGHGGGNNNYRKLLHSLPAEHGGGAMAPPSSGGTVCAGADMVKLISENNNLRRMVMLNLNLMQEQTDSIAAKDKELDDQSAKMSVVKAQNEELKQAVAQLEAANQELCKQLRRKNQRRNDNDDDDDDPPLPPAAPQQKLIRCHAETQTVFREREQGTQTIDAQPQFANALPRGINMKESPALDHHAGAVTNQPASKRSESKGRGEFNGKKVSTFILQRMNQDFEHHIHEQTEVAEEHEMEAHKEQISQEEDQLVAEEDHLHMQEVHTEEVVGGDIFHDALESIEMEVVTEELVDMEEHGQSVDANGHIEEDDDEDDEDDENSDKDDDSEEDDYPWMHSDADVNARTEEELWQNQNYLLELDPTEEKTCAPSAHSTPNHQQKSSTQAEIRKEGNQNRITEKLLQLKPEPMVDALEAPILPKWVAFKKKDKEHESVPESPEVPKQQPHQEDAIVDHNAIKNQLEVPKPDLKPKDQPKDEQRQDGQLDVRVEPQEDVRKVQKETLKRQPEDAPKHLPKAVAPKVTKTSSRESTLPKANTADIKDAPAQKVIANHQSTKTQTDPVKTQRLQVKIRQYEMHPDMRTGSSAPSDIRKQKNVDPVSTPETKTIKSKSMLVNDKKTTSETSQSPDQEIDVETVRRKLAEHLKKELLSQSHSSQVTLKKIRERVATNLIYPPPSAPVSSTTITPAPTPSTTPTPGSTPQHAVTSSMDQEISAAKSKSKAAEQIATPLTPQSNSSVSSTTSTIRKTLNNCSPHTYSKATARSGKLQSRFRTATFPYSTRTWEDQEFHCDNEFFLEEADELLADNP
